Sequences and labels used below:
B1: complement factor H, homozygous Tyr-402/Val-62 allotype (natural protein)
chain: EDCNELPPRRNTEILTGSWSDQTYPEGTQAIYKCRPGYRSLGNVIMVCRKGEWVALNPLRKCQKRPCGHPGDTPFGTFTLTGGNVFEYGVKAVYTCNEGYQLLGEINYRECDTDGWTNDIPICEVVKCLPVTAPENGKIVSSAMEPDREYHFGQAVRFVCNSGYKIEGDEEMHCSDDGFWSKEKPKCVEISCKSPDVINGSPISQKIIYKENERFQYKCNMGYEYSERGDAVCTESGWRPLPSCEEKSCDNPYIPNGDYSPLRIKHRTGDEITYQCRNGFYPATRGNTAKCTSTGWIPAPRCTLKPCDYPDIKHGGLYHENMRRPYFPVAVGKYYSYYCDEHFETPSGSYWDHIHCTQDGWSPAVPCLRKCYFPYLENGYNQNYGRKFVQGKSIDVACHPGYALPKAQTTVTCMENGWSPTPRCIRVKTCSKSSIDIENGFISESQYTYALKEKAKYQCKLGYVTADGETSGSITCGKDGWSAQPTCIKSCDIPVFMNARTKNDFTWFKLNDTLDYECHDGYESNTGSTTGSIVCGYNGWSDLPICYERECELPKIDVHLVPDRKKDQYKVGEVLKFSCKPGFTIVGPNSVQCYHFGLSPDLPICKEQVQSCGPPPELLNGNVKEKTKEEYGHSEVVEYYCNPRFLMKGPNKIQCVDGEWTTLPVCIVEESTCGDIPELEHGWAQLSSPPYYYGDSVEFNCSESFTMIGHRSITCIHGVWTQLPQCVAIDKLKKCKSSNLIILEEHLKNKKEFDHNSNIRYRCRGKEGWIHTVCINGRWDPEVNCSMAQIQLCPPPPQIPNSHNMTTTLNYRDGEKVSVLCQENYLIQEGEEITCKDGRWQSIPLCVEKIPCSQPPQIEHGTINSSRSSQESYAHGTKLSYTCEGGFRISEENETTCYMGKWSSPPQCEGLPCKSPPEISHGVVAHMSDSYQYGEEVTYKCFEGFGIDGPAIAKCLGEKWSHPPSCIKTDCLSLPSFENAIPMGEKKDVYKAGEQVTYTCATYYKMDGASNVTCINSRWTGRPTCRDTSCVNPPTVQNAYIVSRQMSKYPSGERVRYQCRSPYEMFGDEEVMCLNGNWTEPPQCKDSTGKCGPPPPIDNGDITSFPLSVYAPASSVEYQCQNLYQLEGNKRITCRNGQWSEPPKCLHPCVISREIMENYNIALRWTAKQKLYSRTGESVEFVCKRGYRLSSRSHTLRTTCWDGKLEYPTCAKR
modifications: eight biantennary disialylated N-glycans; sites as printed: Asn-511, Asn-700, Asn-784, Asn-804, Asn-864, Asn-892, Asn-1011, Asn-1077
B2: complement factor H, double homozygous His-402/Val-62 allotype (natural protein)
chain: B1 chain with Y384H
modifications: eight biantennary disialylated N-glycans; sites as printed: Asn-511, Asn-700, Asn-784, Asn-804, Asn-864, Asn-892, Asn-1011, Asn-1077

Changes are numbered by the printed parent chain. Where only a bound is given, the exact number is not on record here.

Series [1] has as its target B2. Briefly: SPR. (In general: SPR reads the build-up and loss of mass on a sensor chip optically.)
The series “SPR” deals with the molecule itself. Briefly: SPR.

The term Kd denotes the free concentration of one partner at which half of the binding sites on the other are occupied at equilibrium, for simple one-to-one binding. A higher Kd goes with a looser complex. B1: the Kd in series [1] was more than 40 µM.
As for B2, the Kd in “SPR” was more than 40 µM.

The record behind these values is publication PMC6222095 (2018).
